Measured values from US20210101970A1 (Pfizer, published 2021).

Legend:
human CXCR5 [1] = molecular target: T1, human CXCR5 (human, UniProt P32302 1-372); assay: flow cytometry, B cells from human PBMCs (FIG. 5); comparator 11A7
T1 construct: also called hCXCR5; C-X-C chemokine receptor type 5
T1 sequence: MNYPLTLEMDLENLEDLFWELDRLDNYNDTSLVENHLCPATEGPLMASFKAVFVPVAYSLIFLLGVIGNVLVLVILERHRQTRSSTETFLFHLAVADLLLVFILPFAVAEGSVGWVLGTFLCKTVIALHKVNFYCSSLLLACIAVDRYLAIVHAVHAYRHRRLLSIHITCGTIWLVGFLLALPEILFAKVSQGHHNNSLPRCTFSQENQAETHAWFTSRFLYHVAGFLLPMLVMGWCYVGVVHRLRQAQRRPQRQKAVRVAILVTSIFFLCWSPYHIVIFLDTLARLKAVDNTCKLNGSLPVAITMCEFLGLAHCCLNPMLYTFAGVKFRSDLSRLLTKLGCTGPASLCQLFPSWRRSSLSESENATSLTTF

human CXCR5 [2] = molecular target: T1, human CXCR5; assay: cell-based or functional assay
human CXCR5 [3] = molecular target: T1, human CXCR5; assay: flow cytometry, human PBMC B cells
Experimental: (§1) The apparent affinity for cell surface CXCR5 of chimeric and humanized CXCR5 fucosylated and afucosylated antibodies was assessed. More specifically, to determine the apparent affinity of chimeric and humanized CXCR5 antibodies to CXCR5-expressing cells, cell binding experiments were performed on human and cynomolgus monkey peripheral blood mononuclear cells (PBMCs) and human tonsillar mononuclear cells (TMCs). The apparent affinity of CXCR5 mab binding to CXCR5+ cells (B cells, bona fide Tfh cells, and circulating Tfh-like cells) was calculated as the EC50 of equilibrium binding titration curves in which the geometric mean fluorescence intensity (gMFI) of the antigen binding population was quantified by flow cytometry.
(§2) Following isolation, PBMCs were plated at a density of 1.0×10⁵ cells per well and CD4+ TMCs were plated at a density of 2.0×10⁵ cells per well in isolation buffer (PBS containing 1% FBS and 1 mM EDTA) in 96 well U-bottom plates. The plates were then centrifuged at 1500 rpm for 5 minutes at room temperature. PBMCs and CD4+ TMCs were resuspended in Fluorescence-activated cell sorting (FACS) buffer (PBS containing 1% FBS) containing human crystallized fragment Fc block (2 μL per well; Biolegend) and 4-fold serial dilutions of the antibodies (11-point dilution series, beginning at 5000 ng/mL for PBMCs and 312.5 ng/mL for CD4+ TMCs) and incubated on ice for 2 hours. PBMCs and CD4+ TMCs were then washed with FACS buffer 3 times and resuspended in 50-100 μL of FACs buffer containing fluorescent-conjugated antibodies for staining lymphocyte subsets and a fluorescent-conjugated secondary antibody against human Ig to detect CXCR5 monoclonal antibodies (mAbs). After incubation for 30 minutes at 4° C., PBMCs and CD4+ TMCs were washed with FACS buffer 2 times and resuspended in 125 μL of 0.5% paraformaldehyde (PFA) in PBS. Plates were stored at 4° C. until analysis by flow cytometry (BD LSRFortessa™ Cell Analyzer, BD Biosciences, Franklin Lakes, N.J.).
(§3) The cell binding titration curves were generated by plotting the gMFI of the antigen binding population against the log of CXCR5 antibody concentration. EC₅₀ values were determined using GraphPad Prism® (version 6.0, GraphPad Software, Inc, San Diego, Calif.) nonlinear-regression curve fits and a sigmoidal log of agonist dose-response model, according to the following equation

human CXCR5 [4] = molecular target: T1, human CXCR5; assay: cell-based or functional assay; remark: listed apart in the source
XC280 = molecular target: T2, XC280 (human, UniProt P32302 2-372); assay: flow cytometry on HEK-293T cells transiently expressing the FLAG-tagged mutein; ratio of gMFI of the antibody to gMFI of anti-FLAG PE
T2 construct: also called hCXCR5 W19K
T2 sequence: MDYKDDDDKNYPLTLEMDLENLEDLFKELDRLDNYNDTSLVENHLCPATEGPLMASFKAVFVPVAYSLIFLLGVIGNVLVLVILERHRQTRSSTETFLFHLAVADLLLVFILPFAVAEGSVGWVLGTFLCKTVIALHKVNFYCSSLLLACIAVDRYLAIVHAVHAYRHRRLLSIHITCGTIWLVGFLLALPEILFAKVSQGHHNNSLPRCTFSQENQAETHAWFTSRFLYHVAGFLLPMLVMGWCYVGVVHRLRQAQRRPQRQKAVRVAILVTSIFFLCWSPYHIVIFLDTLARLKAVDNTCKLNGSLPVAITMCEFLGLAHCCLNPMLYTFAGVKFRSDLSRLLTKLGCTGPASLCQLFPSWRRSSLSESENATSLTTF
Experimental: The cells were analyzed by flow cytometry using an Accuri (BD Biosciences Franklin Lakes, N.J.). The geometric mean fluorescence intensity (gMFI) was determined and the ratio for the gMFI of each CXCR5 antibody and anti-flag was calculated.

mouse CXCR5 [5] = molecular target: T3, mouse CXCR5 (mouse, UniProt Q04683 1-374); assay: flow cytometry on cells expressing mouse CXCR5
T3 construct: also called mCXCR5
T3 sequence: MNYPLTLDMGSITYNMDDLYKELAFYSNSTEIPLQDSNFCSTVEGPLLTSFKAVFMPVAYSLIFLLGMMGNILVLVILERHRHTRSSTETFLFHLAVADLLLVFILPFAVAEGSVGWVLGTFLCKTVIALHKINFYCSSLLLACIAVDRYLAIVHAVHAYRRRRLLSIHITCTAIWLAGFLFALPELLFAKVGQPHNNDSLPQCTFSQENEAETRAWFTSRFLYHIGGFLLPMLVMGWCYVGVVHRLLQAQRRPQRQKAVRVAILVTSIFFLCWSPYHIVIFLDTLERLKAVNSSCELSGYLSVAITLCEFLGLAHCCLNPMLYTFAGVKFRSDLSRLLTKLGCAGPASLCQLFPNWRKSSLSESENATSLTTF

human CXCR5 [6] = molecular target: T1, human CXCR5; assay: flow cytometry on Raji cells, gMFI titration
Experimental: The apparent affinity of antibody binding to Raji cells was calculated as the EC₅₀ of equilibrium binding titration curves in which the geometric mean fluorescence intensity (gMFI) of the antigen binding population was quantified by flow cytometry and the results are shown in Table 2.

human CXCR5 [7] = molecular target: T1, human CXCR5; assay: cell-based or functional assay; remark: listed apart in the source
XC253 = molecular target: T4, XC253; assay: FACS on cells expressing the CXCR5 construct
T4 construct: whole, on cells; also called hCXCR5-mN

XC254 = molecular target: T5, XC254; assay: FACS on cells expressing the CXCR5 construct
T5 construct: whole, on cells; also called hCXCR5-mL2-mL3

XC251 = molecular target: T6, XC251; assay: FACS on cells expressing the CXCR5 construct
T6 construct: whole, on cells; also called hCXCR5-mL3

mouse CXCR5 [8] = molecular target: T3, mouse CXCR5; assay: FACS on cells expressing the CXCR5 construct
XC255 = molecular target: T7, XC255; assay: FACS on cells expressing the CXCR5 construct
T7 construct: whole, on cells; also called hCXCR5-mN-mL3

XC252 = molecular target: T8, XC252; assay: FACS on cells expressing the CXCR5 construct
T8 construct: whole, on cells; also called hCXCR5-mL2

XC256 = molecular target: T9, XC256; assay: FACS on cells expressing the CXCR5 construct
T9 construct: whole, on cells; also called hCXCR5-mN-mL2

human CXCR5 [9] = molecular target: T1, human CXCR5; assay: FACS on cells expressing the CXCR5 construct
human CXCR5 [10] = molecular target: T1, human CXCR5; assay: flow cytometry, B cells from human PBMCs (FIG. 5); fucosylated
cynomolgus monkey CXCR5 [11] = molecular target: T10, cynomolgus monkey CXCR5 (cynomolgus monkey, UniProt P32302 1-372 (human entry)); assay: flow cytometry, cynomolgus PBMC Tfh-like cells
T10 construct: also called cynoCXCR5; NHP CXCR5
T10 chain: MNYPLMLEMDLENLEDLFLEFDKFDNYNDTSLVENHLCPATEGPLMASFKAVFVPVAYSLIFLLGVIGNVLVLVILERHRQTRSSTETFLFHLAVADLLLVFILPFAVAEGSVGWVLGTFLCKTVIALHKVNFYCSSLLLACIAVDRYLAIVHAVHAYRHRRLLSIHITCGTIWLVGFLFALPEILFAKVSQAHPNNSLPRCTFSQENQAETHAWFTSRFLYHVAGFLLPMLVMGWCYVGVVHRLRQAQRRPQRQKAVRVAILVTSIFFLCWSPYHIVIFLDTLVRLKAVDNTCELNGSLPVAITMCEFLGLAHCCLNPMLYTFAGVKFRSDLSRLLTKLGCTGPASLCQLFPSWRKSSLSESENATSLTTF
Experimental: as §1
(§4) Following isolation, PBMCs were plated at a density of 1.0×10⁵ cells per well and CD4+ TMCs were plated at a density of 2.0×10⁵ cells per well in isolation buffer (PBS containing 1% FBS and 1 mM EDTA) in 96 well U-bottom plates. The plates were then centrifuged at 1500 rpm for 5 minutes at room temperature. PBMCs and CD4+ TMCs were resuspended in Fluorescence-activated cell sorting (FACS) buffer (PBS containing 1% FBS) containing human crystallized fragment Fc block (2 μL per well; Biolegend) and 4-fold serial dilutions of the antibodies (11-point dilution series, beginning at 5000 ng/mL for PBMCs and 312.5 ng/mL for CD4+ TMCs) and incubated on ice for 2 hours. […]

human CXCR5 [12] = molecular target: T1, human CXCR5; assay: flow cytometry, human tonsil Tfh cells
Experimental: Following centrifugation, red blood cell lysis was performed on the pellet using an ammonium chloride lysis buffer. Platelets were removed using a low speed centrifugation (200×g) for 10 minutes in Phosphate-Buffered Saline (PBS)/2% FBS/2 mM Ethylenediaminetetraacetic acid (EDTA). CD4+ T cells were purified out of the TMC mixture using an EasySep™ Human CD4+ T Cell Enrichment Kit, according to the manufacturer's instructions ([…] Technologies, Vancouver, BC, Canada).
as §2, §3

cynomolgus monkey CXCR5 [13] = molecular target: T10, cynomolgus monkey CXCR5; assay: cell-based or functional assay
cynomolgus monkey CXCR5 [14] = molecular target: T10, cynomolgus monkey CXCR5; assay: flow cytometry, cynomolgus PBMC B cells
Experimental: as §1, §2, §3

human CXCR5 [15] = molecular target: T1, human CXCR5; assay: flow cytometry, human PBMC B cells; remark: listed apart in the source
human CXCR5 [16] = molecular target: T1, human CXCR5; assay: flow cytometry, human PBMC Tfh-like cells
Experimental: as §1, §4

B1: 11A7 (reference antibody) (antibody, human IgG1, lambda, V domains shown)
VH: EVQLVESGGGLVQPGGSLRLSCAASGFTVSSNYMSWVRQAPGKGLEWVSVIYSGGSTYYADSVKGRFTISRHNSKNTLYLQMNSLRAEDTAVYYCARGYVVWGQGTLVTVSS
VL: QPVLTQPPSVSKDLRQTATLTCTGNSNNVGNQGATWLQQHQGHPPKLLSYKNNNRPSGISERFSASRSGNTASLTITGLQPEDEADYYCSAWDSSLSAWVFGGGTQLTVLG
notes: fucosylated
EC50 (human CXCR5 [1]): 0.926 nM
% Inhibition CXCL13 (human CXCR5 [2]): 106%
EC50, stimulation of CXCL13-inhibited cAMP production (human CXCR5 [2]): 1.4 nM
EC50 (human CXCR5 [3]): 0.564 nM
ADCC Activity Average EC50, Human B Cells (human CXCR5 [4]): 0.00435 nM
binding result (XC280): no binding (tested: 1 or 3 µg/ml (not on the sheet))
binding result (mouse CXCR5 [5]): no binding

B2: 16D7 (reference antibody) (antibody, human IgG1, kappa, V domains shown)
VH: QVQLKESGPGLVAPSESLSITCTVSGFSLIDYGVNWIRQPPGKGLEWLGVIWGDGTTYYNPSLKSRLSISKDNSKSQVFLKVTSLTTDDTAMYYCARIVYWGQGTLVTVSA
VL: DIVMTQAAPSVAVTPGASVSISCRSSKSLLHSSGKTYLYWFLQRPGQSPQLLIYRLSSLASGVPDRFSGSGSGTAFTLRISRVEAEDVGVYYCMQHLEYPYTFGGGTKLEIKR
notes: fucosylated; also called S16D7
EC50 (human CXCR5 [6]): 0.65 nM
% Inhibition CXCL13 (human CXCR5 [2]): 102%
EC50, stimulation of CXCL13-inhibited cAMP production (human CXCR5 [2]): 1.1 nM
ADCC Activity Average EC50, Human B Cells (human CXCR5 [4]): 2.59 nM
binding result (XC280): no binding (tested: 1 or 3 µg/ml (not on the sheet))
binding result (mouse CXCR5 [5]): no binding
Ca2+ flux IC50 (human CXCR5 [7]): 11.4 nM
GMFI (XC253): 1260 GMFI
GMFI (XC254): 16900 GMFI
GMFI (XC251): 19900 GMFI
GMFI (mouse CXCR5 [8]): 958 GMFI
GMFI (XC255): 1340 GMFI
GMFI (XC252): 27000 GMFI
GMFI (XC256): 1380 GMFI
GMFI (human CXCR5 [9]): 150000 GMFI

B3: Humanized 11G2 154/155 (antibody, human IgG1, kappa, V domains shown)
VH: EVQLVESGGGLVQPGGSLRLSCAASGFTFTDFYMSWVRQAPGKGLEWVGFIRNKANGYTTEYSASVKGRFTISRDNAKNSLYLQMNSLRAEDTAVYYCARVYGSTLHYWGQGTLVTVSS
VL: DIQMTQSPSSLSASVGDRVTITCRASESVEYHGTSLMHWYQQKPGKAPKLLIYAASNVESGVPSRFSGSGSGTDFTLTISSLQPEDFATYYCQQSRKVPWTFGQGTKVEIKR
notes: fucosylated human IgG1/kappa; also called h11G2 VL XC154/VH XC155
EC50 (human CXCR5 [10]): 0.00963 nM
EC50 (cynomolgus monkey CXCR5 [11]): 0.00565 nM
EC50 (human CXCR5 [12]): 0.00825 nM
% Inhibition CXCL13 (human CXCR5 [2]): 121%
EC50, stimulation of CXCL13-inhibited cAMP production (human CXCR5 [2]): 0.753 nM
EC50 (human CXCR5 [3]): 0.00708 nM
ADCC Activity Average EC50, NHP B Cells (cynomolgus monkey CXCR5 [13]): 0.0391 nM
ADCC Activity Average EC50, Human B Cells (human CXCR5 [4]): 0.254 nM
ADCC Activity Average EC50, Human Tfh Cells (human CXCR5 [4]): 0.00077 nM
ADCC Activity Average EC50, Human Tfh-like Cells (human CXCR5 [4]): 0.00798 nM
EC50 (cynomolgus monkey CXCR5 [14]): 0.00413 nM
fold greater affinity than 2C9 (human CXCR5 [15]): ≥ 10 fold
fold greater affinity than 11A7 (human CXCR5 [15]): ≥ 100 fold
fold higher affinity than 2C9 (human CXCR5 [15]): ~10 fold
fold higher affinity than 11A7 (human CXCR5 [15]): ~100 fold
EC50 (human CXCR5 [16]): 0.00592 nM
